Results published in article PMC11372834.

Biological target: human RXFP1 (human) (UniProt Q9HBX9)
Sequence of UniProt Q9HBX9 (Q9HBX9 whole entry): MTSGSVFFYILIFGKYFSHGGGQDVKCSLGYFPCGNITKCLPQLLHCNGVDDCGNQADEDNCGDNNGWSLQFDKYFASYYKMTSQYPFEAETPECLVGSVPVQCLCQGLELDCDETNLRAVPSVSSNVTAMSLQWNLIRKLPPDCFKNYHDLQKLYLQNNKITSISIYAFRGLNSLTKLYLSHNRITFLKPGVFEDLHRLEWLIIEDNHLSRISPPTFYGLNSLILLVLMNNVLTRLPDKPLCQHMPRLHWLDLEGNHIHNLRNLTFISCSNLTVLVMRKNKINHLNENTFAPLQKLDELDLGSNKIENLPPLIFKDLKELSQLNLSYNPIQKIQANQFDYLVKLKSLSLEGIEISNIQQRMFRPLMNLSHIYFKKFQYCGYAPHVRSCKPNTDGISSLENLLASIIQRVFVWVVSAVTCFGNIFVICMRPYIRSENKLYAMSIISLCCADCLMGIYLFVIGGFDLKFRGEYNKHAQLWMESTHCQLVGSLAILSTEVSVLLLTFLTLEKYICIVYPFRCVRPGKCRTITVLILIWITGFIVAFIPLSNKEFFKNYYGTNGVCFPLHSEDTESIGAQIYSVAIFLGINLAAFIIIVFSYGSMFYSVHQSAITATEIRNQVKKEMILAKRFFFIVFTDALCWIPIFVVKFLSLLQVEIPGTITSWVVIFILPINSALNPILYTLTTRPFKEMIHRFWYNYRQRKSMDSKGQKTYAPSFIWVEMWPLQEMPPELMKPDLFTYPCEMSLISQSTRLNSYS

Substance: native relaxin-2 (ligand)
- EC50, Gs signaling (CRE-SEAP, Figure 1c and Table S1): 100 pM
